Experimental data from patent publication US20140087995A1 (published 2014).
Numbered stars: 1 amine (or outer) side, 2 acyl side, 3 side chain; on linkers, the order of the positions; unused ones are H or OH. Bridge positions count the residues as written; N and C are the ends. Side chains are listed from the residue outwards. Ends that are not written are not given here. * marks the point of attachment. C20 diacid = O=C(O)CCCCCCCCCCCCCCCCCCC(=O)*; γGlu = O=C(O)[C@H](CCC(=O)[*:2])N[*:1]; AEEA = NCCOCCOCC(=O)O

T1: human amylin receptor (amylin 3(a) receptor: human calcitonin receptor co-expressed with RAMP-3) (human, UniProt P30988 25-474; O60896 24-148, limits assumed)
T1 sequence (looked up) 1: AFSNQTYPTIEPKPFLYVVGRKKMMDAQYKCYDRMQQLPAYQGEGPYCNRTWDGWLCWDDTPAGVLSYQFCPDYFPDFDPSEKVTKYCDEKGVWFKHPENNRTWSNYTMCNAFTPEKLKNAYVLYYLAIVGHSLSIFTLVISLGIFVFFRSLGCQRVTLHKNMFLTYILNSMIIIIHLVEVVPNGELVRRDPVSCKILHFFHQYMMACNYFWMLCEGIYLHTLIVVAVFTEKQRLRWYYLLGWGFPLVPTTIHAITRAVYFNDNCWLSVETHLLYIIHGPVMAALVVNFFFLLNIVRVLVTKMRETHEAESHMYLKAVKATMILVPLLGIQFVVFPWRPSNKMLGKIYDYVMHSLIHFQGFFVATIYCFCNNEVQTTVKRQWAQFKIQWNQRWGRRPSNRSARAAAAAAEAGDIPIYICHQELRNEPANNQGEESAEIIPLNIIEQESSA
T1 sequence (looked up) 2: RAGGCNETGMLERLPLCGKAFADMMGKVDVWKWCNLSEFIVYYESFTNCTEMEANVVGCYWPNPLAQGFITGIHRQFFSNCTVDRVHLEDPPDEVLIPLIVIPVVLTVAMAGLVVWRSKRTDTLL

T2: human calcitonin receptor (human, UniProt P30988 25-474)
T2 sequence (looked up): T1 sequence (looked up) 1

B1: N^ε1-[2-[2-[2-[[(4S)-4-carboxy-4-(19-carboxynonadecanoylamino)butanoyl]amino]ethoxy]ethoxy]acetyl]-[Arg17,Pro21,Pro27,Pro28,Pro34]-h-amylin (peptide)
peptide: K([AEEA-γGlu-C20 diacid])CNTATCATQRLANFLRHSSPNFGAIPPSTNVGPNTY-NH2
modifications: disulfide 2-7; N-terminus assumed
SMILES: CC[C@H](C)[C@H](NC(=O)[C@H](C)NC(=O)CNC(=O)[C@H](Cc1ccccc1)NC(=O)[C@H](CC(N)=O)NC(=O)[C@@H]1CCCN1C(=O)[C@H](CO)NC(=O)[C@H](CO)NC(=O)[C@H](Cc1c[nH]cn1)NC(=O)[C@H](CCCNC(=N)N)NC(=O)[C@H](CC(C)C)NC(=O)[C@H](Cc1ccccc1)NC(=O)[C@H](CC(N)=O)NC(=O)[C@H](C)NC(=O)[C@H](CC(C)C)NC(=O)[C@H](CCCNC(=N)N)NC(=O)[C@H](CCC(N)=O)NC(=O)[C@@H](NC(=O)[C@H](C)NC(=O)[C@@H]1CSSC[C@H](NC(=O)[C@@H](N)CCCCNC(=O)COCCOCCNC(=O)CC[C@H](NC(=O)CCCCCCCCCCCCCCCCCCC(=O)O)C(=O)O)C(=O)N[C@@H](CC(N)=O)C(=O)N[C@@H]([C@@H](C)O)C(=O)N[C@@H](C)C(=O)N[C@@H]([C@@H](C)O)C(=O)N1)[C@@H](C)O)C(=O)N1CCC[C@H]1C(=O)N1CCC[C@H]1C(=O)N[C@@H](CO)C(=O)N[C@H](C(=O)N[C@@H](CC(N)=O)C(=O)N[C@H](C(=O)NCC(=O)N1CCC[C@H]1C(=O)N[C@@H](CC(N)=O)C(=O)N[C@H](C(=O)N[C@@H](Cc1ccc(O)cc1)C(N)=O)[C@@H](C)O)C(C)C)[C@@H](C)O
notes: also called compound 55
B2: N^ε1-[2-[2-[2-[[(4S)-4-carboxy-4-(19-carboxynonadecanoylamino)butanoyl]amino]ethoxy]ethoxy]acetyl]-[Arg17,Pro21,Pro27,Pro34,His35]-h-amylin (peptide)
peptide: K([AEEA-γGlu-C20 diacid])CNTATCATQRLANFLRHSSPNFGAIPSSTNVGPHTY-NH2
modifications: disulfide 2-7; N-terminus assumed
SMILES: CC[C@H](C)[C@H](NC(=O)[C@H](C)NC(=O)CNC(=O)[C@H](Cc1ccccc1)NC(=O)[C@H](CC(N)=O)NC(=O)[C@@H]1CCCN1C(=O)[C@H](CO)NC(=O)[C@H](CO)NC(=O)[C@H](Cc1c[nH]cn1)NC(=O)[C@H](CCCNC(=N)N)NC(=O)[C@H](CC(C)C)NC(=O)[C@H](Cc1ccccc1)NC(=O)[C@H](CC(N)=O)NC(=O)[C@H](C)NC(=O)[C@H](CC(C)C)NC(=O)[C@H](CCCNC(=N)N)NC(=O)[C@H](CCC(N)=O)NC(=O)[C@@H](NC(=O)[C@H](C)NC(=O)[C@@H]1CSSC[C@H](NC(=O)[C@@H](N)CCCCNC(=O)COCCOCCNC(=O)CC[C@H](NC(=O)CCCCCCCCCCCCCCCCCCC(=O)O)C(=O)O)C(=O)N[C@@H](CC(N)=O)C(=O)N[C@@H]([C@@H](C)O)C(=O)N[C@@H](C)C(=O)N[C@@H]([C@@H](C)O)C(=O)N1)[C@@H](C)O)C(=O)N1CCC[C@H]1C(=O)N[C@@H](CO)C(=O)N[C@@H](CO)C(=O)N[C@H](C(=O)N[C@@H](CC(N)=O)C(=O)N[C@H](C(=O)NCC(=O)N1CCC[C@H]1C(=O)N[C@@H](Cc1c[nH]cn1)C(=O)N[C@H](C(=O)N[C@@H](Cc1ccc(O)cc1)C(N)=O)[C@@H](C)O)C(C)C)[C@@H](C)O
notes: also called compound 58
B3: N^ε1-[2-[2-[2-[[(4S)-4-carboxy-4-(19-carboxynonadecanoylamino)butanoyl]amino]ethoxy]ethoxy]acetyl]-[Arg17,Pro21,Pro27,Pro29,Pro31]-h-amylin (peptide)
peptide: K([AEEA-γGlu-C20 diacid])CNTATCATQRLANFLRHSSPNFGAIPSPTPVGSNTY-NH2
modifications: disulfide 2-7; N-terminus assumed
SMILES: CC[C@H](C)[C@H](NC(=O)[C@H](C)NC(=O)CNC(=O)[C@H](Cc1ccccc1)NC(=O)[C@H](CC(N)=O)NC(=O)[C@@H]1CCCN1C(=O)[C@H](CO)NC(=O)[C@H](CO)NC(=O)[C@H](Cc1c[nH]cn1)NC(=O)[C@H](CCCNC(=N)N)NC(=O)[C@H](CC(C)C)NC(=O)[C@H](Cc1ccccc1)NC(=O)[C@H](CC(N)=O)NC(=O)[C@H](C)NC(=O)[C@H](CC(C)C)NC(=O)[C@H](CCCNC(=N)N)NC(=O)[C@H](CCC(N)=O)NC(=O)[C@@H](NC(=O)[C@H](C)NC(=O)[C@@H]1CSSC[C@H](NC(=O)[C@@H](N)CCCCNC(=O)COCCOCCNC(=O)CC[C@H](NC(=O)CCCCCCCCCCCCCCCCCCC(=O)O)C(=O)O)C(=O)N[C@@H](CC(N)=O)C(=O)N[C@@H]([C@@H](C)O)C(=O)N[C@@H](C)C(=O)N[C@@H]([C@@H](C)O)C(=O)N1)[C@@H](C)O)C(=O)N1CCC[C@H]1C(=O)N[C@@H](CO)C(=O)N1CCC[C@H]1C(=O)N[C@H](C(=O)N1CCC[C@H]1C(=O)N[C@H](C(=O)NCC(=O)N[C@@H](CO)C(=O)N[C@@H](CC(N)=O)C(=O)N[C@H](C(=O)N[C@@H](Cc1ccc(O)cc1)C(N)=O)[C@@H](C)O)C(C)C)[C@@H](C)O
notes: also called compound 54
B4: N^ε1-[2-[2-[2-[[(4S)-4-carboxy-4-(19-carboxynonadecanoylamino)butanoyl]amino]ethoxy]ethoxy]acetyl]-[Arg17,Pro21,Pro27,Pro31]-h-amylin (peptide)
peptide: K([AEEA-γGlu-C20 diacid])CNTATCATQRLANFLRHSSPNFGAIPSSTPVGSNTY-NH2
modifications: disulfide 2-7; N-terminus assumed
SMILES: CC[C@H](C)[C@H](NC(=O)[C@H](C)NC(=O)CNC(=O)[C@H](Cc1ccccc1)NC(=O)[C@H](CC(N)=O)NC(=O)[C@@H]1CCCN1C(=O)[C@H](CO)NC(=O)[C@H](CO)NC(=O)[C@H](Cc1c[nH]cn1)NC(=O)[C@H](CCCNC(=N)N)NC(=O)[C@H](CC(C)C)NC(=O)[C@H](Cc1ccccc1)NC(=O)[C@H](CC(N)=O)NC(=O)[C@H](C)NC(=O)[C@H](CC(C)C)NC(=O)[C@H](CCCNC(=N)N)NC(=O)[C@H](CCC(N)=O)NC(=O)[C@@H](NC(=O)[C@H](C)NC(=O)[C@@H]1CSSC[C@H](NC(=O)[C@@H](N)CCCCNC(=O)COCCOCCNC(=O)CC[C@H](NC(=O)CCCCCCCCCCCCCCCCCCC(=O)O)C(=O)O)C(=O)N[C@@H](CC(N)=O)C(=O)N[C@@H]([C@@H](C)O)C(=O)N[C@@H](C)C(=O)N[C@@H]([C@@H](C)O)C(=O)N1)[C@@H](C)O)C(=O)N1CCC[C@H]1C(=O)N[C@@H](CO)C(=O)N[C@@H](CO)C(=O)N[C@H](C(=O)N1CCC[C@H]1C(=O)N[C@H](C(=O)NCC(=O)N[C@@H](CO)C(=O)N[C@@H](CC(N)=O)C(=O)N[C@H](C(=O)N[C@@H](Cc1ccc(O)cc1)C(N)=O)[C@@H](C)O)C(C)C)[C@@H](C)O
notes: also called compound 49
B5: N^ε1-[2-[2-[2-[[(4S)-4-carboxy-4-(19-carboxynonadecanoylamino)butanoyl]amino]ethoxy]ethoxy]acetyl]-[Arg17,Pro21,Pro27,Pro29,Pro34]-h-amylin (peptide)
peptide: K([AEEA-γGlu-C20 diacid])CNTATCATQRLANFLRHSSPNFGAIPSPTNVGPNTY-NH2
modifications: disulfide 2-7; N-terminus assumed
SMILES: CC[C@H](C)[C@H](NC(=O)[C@H](C)NC(=O)CNC(=O)[C@H](Cc1ccccc1)NC(=O)[C@H](CC(N)=O)NC(=O)[C@@H]1CCCN1C(=O)[C@H](CO)NC(=O)[C@H](CO)NC(=O)[C@H](Cc1c[nH]cn1)NC(=O)[C@H](CCCNC(=N)N)NC(=O)[C@H](CC(C)C)NC(=O)[C@H](Cc1ccccc1)NC(=O)[C@H](CC(N)=O)NC(=O)[C@H](C)NC(=O)[C@H](CC(C)C)NC(=O)[C@H](CCCNC(=N)N)NC(=O)[C@H](CCC(N)=O)NC(=O)[C@@H](NC(=O)[C@H](C)NC(=O)[C@@H]1CSSC[C@H](NC(=O)[C@@H](N)CCCCNC(=O)COCCOCCNC(=O)CC[C@H](NC(=O)CCCCCCCCCCCCCCCCCCC(=O)O)C(=O)O)C(=O)N[C@@H](CC(N)=O)C(=O)N[C@@H]([C@@H](C)O)C(=O)N[C@@H](C)C(=O)N[C@@H]([C@@H](C)O)C(=O)N1)[C@@H](C)O)C(=O)N1CCC[C@H]1C(=O)N[C@@H](CO)C(=O)N1CCC[C@H]1C(=O)N[C@H](C(=O)N[C@@H](CC(N)=O)C(=O)N[C@H](C(=O)NCC(=O)N1CCC[C@H]1C(=O)N[C@@H](CC(N)=O)C(=O)N[C@H](C(=O)N[C@@H](Cc1ccc(O)cc1)C(N)=O)[C@@H](C)O)C(C)C)[C@@H](C)O
notes: also called compound 56
B6: N^ε1-[2-[2-[2-[[(4S)-4-carboxy-4-(19-carboxynonadecanoylamino)butanoyl]amino]ethoxy]ethoxy]acetyl]-[Arg17,Pro21,Pro27,Pro31,His35]-h-amylin (peptide)
peptide: K([AEEA-γGlu-C20 diacid])CNTATCATQRLANFLRHSSPNFGAIPSSTPVGSHTY-NH2
modifications: disulfide 2-7; N-terminus assumed
SMILES: CC[C@H](C)[C@H](NC(=O)[C@H](C)NC(=O)CNC(=O)[C@H](Cc1ccccc1)NC(=O)[C@H](CC(N)=O)NC(=O)[C@@H]1CCCN1C(=O)[C@H](CO)NC(=O)[C@H](CO)NC(=O)[C@H](Cc1c[nH]cn1)NC(=O)[C@H](CCCNC(=N)N)NC(=O)[C@H](CC(C)C)NC(=O)[C@H](Cc1ccccc1)NC(=O)[C@H](CC(N)=O)NC(=O)[C@H](C)NC(=O)[C@H](CC(C)C)NC(=O)[C@H](CCCNC(=N)N)NC(=O)[C@H](CCC(N)=O)NC(=O)[C@@H](NC(=O)[C@H](C)NC(=O)[C@@H]1CSSC[C@H](NC(=O)[C@@H](N)CCCCNC(=O)COCCOCCNC(=O)CC[C@H](NC(=O)CCCCCCCCCCCCCCCCCCC(=O)O)C(=O)O)C(=O)N[C@@H](CC(N)=O)C(=O)N[C@@H]([C@@H](C)O)C(=O)N[C@@H](C)C(=O)N[C@@H]([C@@H](C)O)C(=O)N1)[C@@H](C)O)C(=O)N1CCC[C@H]1C(=O)N[C@@H](CO)C(=O)N[C@@H](CO)C(=O)N[C@H](C(=O)N1CCC[C@H]1C(=O)N[C@H](C(=O)NCC(=O)N[C@@H](CO)C(=O)N[C@@H](Cc1c[nH]cn1)C(=O)N[C@H](C(=O)N[C@@H](Cc1ccc(O)cc1)C(N)=O)[C@@H](C)O)C(C)C)[C@@H](C)O
notes: also called compound 57

target: T1, human amylin receptor (amylin 3(a) …); assay: cell-based or functional assay

hAmylin-R funct. EC50 [nM]	Binder
0.068	B1
0.047	B2
0.103	B3
0.106	B4
0.102	B5
0.089	B6

target: T2, human calcitonin receptor; assay: cell-based or functional assay

Ratio hCT/hAmylin funct. (hCTR EC50 against hAmylin-R EC50)	hCTR funct. EC50 [nM]	Binder
10.8	0.731	B1
21.9	1.03	B2
9.6	0.987	B3
22.5	2.39	B4
5	0.506	B5
35	3.12	B6
